Data reported in publication PMC4433263, “Identification of Rv3852 as an Agrimophol-Binding Protein in Mycobacterium tuberculosis” (PLoS ONE, 2015).

Experiments:
Rv2466c = Rv2466c (UniProt O53193); experiment: EMSA; conditions: binding buffer and pH not stated ([…]
[1] = molecular target: T1, Rv3852 (Mycobacterium tuberculosis H37Rv) (UniProt I6YHB0); experiment: EMSA; conditions: binding buffer and pH not stated ([…]
T1 sequence: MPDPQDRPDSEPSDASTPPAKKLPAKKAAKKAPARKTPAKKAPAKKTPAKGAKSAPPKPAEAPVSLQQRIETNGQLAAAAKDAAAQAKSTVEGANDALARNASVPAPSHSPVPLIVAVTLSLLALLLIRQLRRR

Sequence of Rv2466c (O53193 whole entry): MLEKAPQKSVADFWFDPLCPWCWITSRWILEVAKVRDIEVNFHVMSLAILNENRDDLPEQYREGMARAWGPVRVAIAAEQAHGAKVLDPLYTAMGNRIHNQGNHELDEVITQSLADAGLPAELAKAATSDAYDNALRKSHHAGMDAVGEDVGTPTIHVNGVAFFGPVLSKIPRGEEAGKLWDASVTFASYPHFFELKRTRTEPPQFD

With “AATTCCGGCGCCTTCCCGGGCCGGAAGCCGGGCAGCCGCACCTGTTTGGCCAGCTCTTTGTAGGCCCGCTGGAAATCCGGCTCAAGCTCGGCGAATGGCACCTCCACGTTGATACGAACCCGGGTGGGGCTCAACTGCTCGACGGTGCTCTTCACGGGTGTGCTCCTTGGTAGTCGATAACGGCGGTCGGCTGGTCGGGGTGACAGGATTTGAACCTGCGGCCTTCCGCTCCCAAAGCGGATGCGCTACCAAGCTGCGCTACACCCCGCGCTGACCTCGCGATCCTACG / AATTCGTAGGATCGCGAGGTCAGCGCGGGGTGTAGCGCAGCTTGGTAGCGCATCCGCTTTGGGAGCGGAAGGCCGCAGGTTCAAATCCTGTCACCCCGACCAGCCGACCGCCGTTATCGACTACCAAGGAGCACACCCGTGAAGAGCACCGTCGAGCAGTTGAGCCCCACCCGGGTTCGTATCAACGTGGAGGTGCCATTCGCCGAGCTTGAGCCGGATTTCCAGCGGGCCTACAAAGAGCTGGCCAAACAGGTGCGGCTGCCCGGCTTCCGGCCCGGGAAGGCGCCGG [proU2]” the binding (Rv2466c) was “no binding” and the binding [1] was “binds”.
